Results reported in paper PMC3538687, “Detection of Cyclic Diguanylate G-Octaplex Assembly and Interaction with Proteins”.

Experiments:
[1] = target: T1, HIV-1 reverse transcriptase (HIV RT) (HIV-1 (HXB2 strain), UniProt P04585;P04585 588-1147;588-1027); assay: competition (DRaCALA); unlabeled PF1 vs 5 nM 32P-PF1; 960 nM RT; details: protein: commercial; copies: 1;1
[2] = target: T1, HIV-1 reverse transcriptase (HIV RT); assay: competition (DRaCALA); details: protein: commercial; copies: 1;1
[3] = target: Thrombin protease (UniProt P00734;P00734 328-363;364-622); assay: DRaCALA; 8 µM thrombin; DRaCALA on dry nitrocellulose, 10 min at room temperature; binding buffer and pH not given in the material. cdiGMP G8/M/D binding (a cyclic dinucleotide ligand)

Binder	binding result [2]	further results
AGGAAGGCTTTAGGTCTGAGATCTCGGAAT (structured_DNA) [PF1]	–	IC50 [1]: 4 µM
CGCCTGACCCTTCAGGCGTTGGGTGGGTGGGTGGG (structured_DNA) [S4]	binds	–
TAATACCCCCCCTTCGGTGCAAAGCACCGAAGGGGGGG (structured_DNA) [38 NT SELEX]	binds	–
GGTTGGTGTGGTTGG (structured_DNA) [TBA25]	–	binding result [3]: binds
